Experimental data reported in paper doi:10.1101/2022.12.30.522308 (bioRxiv, 2022).
Like-named read-outs stand apart in the source and are kept apart here. Blank lines part the entries; values can stand above or below the binder they belong to.

Experiments:
[1] = target: recombinant human IL-9 (R&D Systems) (Homo sapiens, UniProt P15248); assay: BLI
[2] = target: T1, non-glycosylated binary hIL-9:hIL-9Rα complex (human, UniProt P15248 19-144; Q01113-1 40-261); assay: ITC
[3] = target: T1, non-glycosylated binary hIL-9:hIL-9Rα …; assay: ITC; remark: listed apart in the source
[4] = target: recombinant mouse IL-9 (R&D Systems) (mouse, UniProt P15247); assay: BLI
Sequence of recombinant mouse IL-9 (R&D Systems) (P15247 19-144): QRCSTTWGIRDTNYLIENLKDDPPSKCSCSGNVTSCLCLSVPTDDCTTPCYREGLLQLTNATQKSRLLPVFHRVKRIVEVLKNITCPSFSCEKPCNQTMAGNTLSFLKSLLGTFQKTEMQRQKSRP

T1 sequence (P15248 19-144, chain 1 of 2): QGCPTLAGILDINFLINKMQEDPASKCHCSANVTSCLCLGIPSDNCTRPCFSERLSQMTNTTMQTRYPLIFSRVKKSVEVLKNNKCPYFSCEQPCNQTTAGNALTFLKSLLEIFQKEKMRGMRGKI
T1 sequence (Q01113 40-261, chain 2 of 2): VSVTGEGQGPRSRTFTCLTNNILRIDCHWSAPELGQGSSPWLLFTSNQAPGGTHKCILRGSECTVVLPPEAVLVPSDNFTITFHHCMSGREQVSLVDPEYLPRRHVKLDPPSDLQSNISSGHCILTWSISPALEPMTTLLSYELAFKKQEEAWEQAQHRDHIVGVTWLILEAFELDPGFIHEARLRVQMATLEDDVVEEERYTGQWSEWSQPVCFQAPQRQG
Sequence of recombinant human IL-9 (R&D Systems) (P15248 19-144): as the sequence (P15248 19-144, chain 1 of 2) above

Kd [1]: 0.0018 µM
B1: anti-hIL-9 monoclonal antibody 7D6 (antibody, V domains shown)
VH: QLQLVESGPGLVKPSQTLSLTCTVSGGSITTGYYAWSWIRQPPGKGLEWMGFIARDGSTSYSPSLKSRTSISRDTSKNQFSLQLSSVTPEDTAVYYCARAGEGRSWYPGYYYGMDYWGKGTLVTVSS
VL: QAVVTQEPSLSVSPGGTVTLTCGLSSGSVTSSNYPGWYQQTPGQAPRVLIYNTNSRHSGVPSRYSGFISGNKAALTITGAEPEDEADYYCHLHKGSTGVFGGGTHLTVL

Kd [2]: 2.5 µM
Kd [3]: 9 µM
B2: trimmed extracellular domain of human common gamma chain (hγc, residues 56-254), produced in Sf9 cells (receptor, UniProt P31785-1 56-254, looked up)
chain: PLPEVQCFVFNVEYMNCTWNSSSEPQPTNLTLHYWYKNSDNDKVQKCSHYLFSEEITSGCQLQKKEIHLYQTFVVQLQDPREPRRQATQMLKLQNLVIPWAPENLTLHKLSESQLELNWNNRFLNHCLEHLVQYRTDWDHSWTEQSVDYRHKFSLPSVDGQKRYTFRVRSRFNPLCGSAQHWSEWSHPIHWGSNTSKEN

binding result [4]: binds
B3: anti-mIL-9 monoclonal antibody 35D8 (antibody, V domains shown)
VH: QVQLVESGPGLVQPSQTLSLTCTVSGGSITTSYYDWSWIRQPPGKGLEWMGAIAYSGNAYYSPSLKSRTSISRDTSKNQFTLQLSSVTPEDTAVYYCAREDHYSDTHGWNDYWGQGTQVTVSS
VL: ALTQPSAVSVSLGQTARITCQGGSIGNFGATWYQQKPGQAPVLLSLGEHSRPSGIPERFSGSKSGGTATLTISGAQAEDEADYYCQSFDYIGNDHVFGGGTHLTVL

Kd [1]: 0.00024 µM
B4: anti-hIL-9 monoclonal antibody 6E2 (antibody, V domains shown)
VH: QVQLVESGGGLVQPGGSLRLSCAASGFTFSSSAMGWVRQAPGKGLEWVSTIVNSITTTYYADSVKGRFTISTDNAKNTLYLQIDSLKSEDTAVYYCGSLAGPYYDYWGQGTQVTVSS
VL: ALTQPSTVSVSLGQTARITCQGGSLGSYDAHWYQQKPGQAPVLVIHDNNSRPSGIPERFTGSRSGETATLTISGAQTEDEADYYCQSYDSTSDALVFGGGTQLTVL
